Test results published in patent US20210355192A1 (YALE UNIVERSITY, published 2021).

Target: the molecule itself
Experiment: gel filtration with multi-angle light scattering (self-association)
Protocol: Multi-angle Light Scattering. PFcR and subdomains (1 mg/ml) in 20 mM Tris-HCl buffer (pH 7.4) containing 0.2M NaCl was applied at 0.5 ml per minute to Superdex200 16/600 (GE, Boston, Mass.) gel filtration column in-line with DAWN HELEOS II light scattering instrument (Wyatt Technology, Santa Barbra, Calif.; laser wavelength 658 nm). Data collection and analysis used Astra software (Wyatt technology).

B1: His-tagged consensus filaggrin subdomain SD67 (other)
chain: SEDSERWSGSASRNHHGSAQEQSRDGSRHPRSHHEDRAGHGHSADSSRQSGTRHAETSSGGQAASSH
notes: His-tag kept (thrombin degraded the protein); also called short linker subdomain; not shown: 19-residue N-terminal tag (hexa-his, thrombin site, spacer residues)
binding result: no binding (tested: 1 mg/ml)

B2: His-tagged consensus filaggrin subdomain SD150 (other)
chain: SEDSDTQSVSAHGQAGPHQQSHQESARGRSGERSGRSGSFLYQVSTHEQSESAHGRTGPSTGGRQGSHHEQARDSSRHSASQEGQDTIRGHPGSSRGGRQGSHHEQSVDRSGHSGSHHSHTTSQGRSDASRGQSGSRSASRQTRNEEQSG
notes: His-tag kept (thrombin degraded the protein); also called long linker subdomain; not shown: 19-residue N-terminal tag (hexa-his, thrombin site, spacer residues)
binding result: no binding (tested: 1 mg/ml)
